According to US10640563B2, “Anti-B7-H3 antibodies and antibody drug conjugates” (AbbVie Inc., priority 2016, dated 2020):
Marks after values point to notes of the source that are not given here.

Legend:
H1975 = assay: In vivo xenograft model of non-small cell lung cancer H1975; settings: NCI-H1975; 7.5 mg/kg/day, QDx1/IV
Experimental: (§1) The anti-tumor activity was assessed as monotherapy and in combination with docetaxel (H1650, H1299, H1975, and EBC1).

H1299 = assay: In vivo xenograft model of non-small cell lung cancer H1299; settings: NCI-H1299; 7.5 mg/kg/day, QDx1/IV
Experimental: as §1

EBC1 = assay: In vivo xenograft model of non-small cell lung cancer EBC1; settings: 7.5 mg/kg/day, QDx1/IV
Experimental: as §1

H1650 = assay: In vivo xenograft model H1650; parameters: species or system mouse; settings: NCI-H1650, 7.5 mg/kg/day
H847 cells = assay: Cell cytotoxicity of ADCs in H847 cells; format: cell-based; settings: Table 17; CZ conjugates; read-out: Cytotoxicity (H847 Cell line IC50)
Description: These new anti-B7-H3 antibodies were further characterized for binding by SPR and conjugated to the Bcl-xLi synthon CZ and assessed for cell cytotoxicity (using the methods described in Example 7).

B7-H3 = target: T1, B7-H3 (Homo sapiens, UniProt Q5ZPR3); assay: Affinity of naked mAbs by SPR (Biacore); format: binding; settings: Table 17
T1 construct: His tag (6xHis) (C); made in house
T1 sequence (Q5ZPR3 with tags, fused parts or gaps): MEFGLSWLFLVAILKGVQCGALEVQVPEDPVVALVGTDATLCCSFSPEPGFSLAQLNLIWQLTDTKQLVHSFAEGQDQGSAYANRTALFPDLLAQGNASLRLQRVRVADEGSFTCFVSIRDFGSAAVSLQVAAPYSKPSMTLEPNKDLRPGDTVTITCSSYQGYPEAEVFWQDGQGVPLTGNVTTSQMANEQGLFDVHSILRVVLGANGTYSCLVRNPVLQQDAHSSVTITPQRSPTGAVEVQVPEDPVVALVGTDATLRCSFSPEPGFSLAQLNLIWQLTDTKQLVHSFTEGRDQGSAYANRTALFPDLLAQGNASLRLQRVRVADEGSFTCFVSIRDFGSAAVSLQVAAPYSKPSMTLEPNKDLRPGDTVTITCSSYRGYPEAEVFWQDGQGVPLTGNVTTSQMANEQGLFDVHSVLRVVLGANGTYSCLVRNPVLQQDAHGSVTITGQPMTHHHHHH
Experimental: The parental chAb18 from which the variants were derived was also tested as a comparator.

[1] = Aggregation of conjugates by SEC; format: physicochemical; settings: Table 17; CZ conjugates of huAb3v2 variants
NCI-H146 cells = assay: In vivo xenograft model of small cell lung cancer (NCI-H146); parameters: species or system mice; settings: Table 23; 6 mg/kg/IP/QDx1
mouse B7-H3 = target: T2, mouse B7-H3 (Mus musculus, UniProt Q8VE98); assay: FACS binding to mouse 3T12 fibroblasts expressing mouse B7-H3; settings: purified mouse hybridoma mAb; cells expressing mouse B7-H3
T2 construct: expressed in transfected cells; host or cells: mouse 3T12 fibroblasts
T2 sequence (Q8VE98 29-316): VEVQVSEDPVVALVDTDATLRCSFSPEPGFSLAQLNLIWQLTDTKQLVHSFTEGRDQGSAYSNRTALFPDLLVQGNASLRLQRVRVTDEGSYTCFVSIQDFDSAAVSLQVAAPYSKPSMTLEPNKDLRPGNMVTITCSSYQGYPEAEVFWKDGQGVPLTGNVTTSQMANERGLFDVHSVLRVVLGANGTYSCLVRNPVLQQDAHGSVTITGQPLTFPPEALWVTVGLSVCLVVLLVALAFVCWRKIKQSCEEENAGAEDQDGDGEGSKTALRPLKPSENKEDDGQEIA

[2] = target: T3, soluble ECD of human B7-H3 (Homo sapiens, UniProt Q5ZPR3); assay: Biacore T200 SPR binding kinetics, mAb capture; settings: Biacore T200, Fc capture of mAb, B7-H3 ECD as analyte, 1:1 binding model
T3 construct: His tag (6xHis) (C); made in house
T3 sequence (Q5ZPR3 with tags, fused parts or gaps): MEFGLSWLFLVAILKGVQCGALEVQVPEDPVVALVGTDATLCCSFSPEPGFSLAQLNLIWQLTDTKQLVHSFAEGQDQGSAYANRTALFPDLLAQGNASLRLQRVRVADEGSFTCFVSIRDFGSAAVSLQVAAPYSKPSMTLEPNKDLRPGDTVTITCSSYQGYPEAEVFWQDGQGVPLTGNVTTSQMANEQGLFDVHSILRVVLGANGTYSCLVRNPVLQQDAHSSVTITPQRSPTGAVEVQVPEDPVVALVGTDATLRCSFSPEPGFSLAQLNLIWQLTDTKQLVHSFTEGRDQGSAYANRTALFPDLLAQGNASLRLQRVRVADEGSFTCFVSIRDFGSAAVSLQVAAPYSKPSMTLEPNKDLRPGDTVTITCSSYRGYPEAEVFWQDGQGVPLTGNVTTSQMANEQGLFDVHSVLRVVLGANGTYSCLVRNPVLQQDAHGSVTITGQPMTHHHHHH
Experimental: The binding affinity of the purified anti-B7-H3 monoclonal antibodies was determined by surface […]. […] The binding kinetics were derived from SPR measurements using a Biacore T200 instrument and a mAb capture approach (as described in the materials and methods below).
Biacore T200 SPR instruments were used to measure the binding kinetics of human B7-H3 (analyte) binding to various mAbs (ligands). The assay format was Fc-based capture via immobilized anti-mouse (Fc) (Pierce 31170) or immobilized anti-human (Fc) (Pierce 31125). A standard amine coupling protocol was employed to immobilize the capture reagents via primary amines to the carboxy-methyl (CM) dextran surface of CM5 sensorchips (Biacore); capture antibodies were coupled to a level of approximately 5000 RU. For binding kinetic measurements the assay buffer was HBS-EP+ (Biacore): 10 mM Hepes, pH7.4, 150 mM NaCl, 3 mM EDTA, 0.05% polysorbate 20. During the assay, all measurements were referenced against the capture surface alone. Each assay cycle consisted of the following steps: 1) Capture of ligand to approximately 50 RU; 2) Analyte injection over both reference and test surface, 240 μL at 80 μL/min, after which the dissociation was monitored for 900 seconds at 80 μL/min; 3) Regeneration of capture surface with low pH glycine. For kinetic determinations analyte injections were 3-point, 9-fold dilution series of 900 nM, 100 nM and 11.11 nM, buffer only injections were included for secondary referencing. Data were processed and fit to a 1:1 binding model using Biacore T200 Evaluation Software to determine the binding kinetic rate constants, ka (on-rate) and kd (off-rate), and the equilibrium dissociation constant (affinity, KD).

[3] = tested on: soluble ECD of cyno B7-H3; assay: Biacore T200 SPR binding kinetics, mAb capture; parameters: species or system cynomolgus monkey; settings: Biacore T200, Fc capture of mAb, B7-H3 ECD as analyte, 1:1 binding model
Sequence of soluble ECD of cyno B7-H3 (as listed by the source): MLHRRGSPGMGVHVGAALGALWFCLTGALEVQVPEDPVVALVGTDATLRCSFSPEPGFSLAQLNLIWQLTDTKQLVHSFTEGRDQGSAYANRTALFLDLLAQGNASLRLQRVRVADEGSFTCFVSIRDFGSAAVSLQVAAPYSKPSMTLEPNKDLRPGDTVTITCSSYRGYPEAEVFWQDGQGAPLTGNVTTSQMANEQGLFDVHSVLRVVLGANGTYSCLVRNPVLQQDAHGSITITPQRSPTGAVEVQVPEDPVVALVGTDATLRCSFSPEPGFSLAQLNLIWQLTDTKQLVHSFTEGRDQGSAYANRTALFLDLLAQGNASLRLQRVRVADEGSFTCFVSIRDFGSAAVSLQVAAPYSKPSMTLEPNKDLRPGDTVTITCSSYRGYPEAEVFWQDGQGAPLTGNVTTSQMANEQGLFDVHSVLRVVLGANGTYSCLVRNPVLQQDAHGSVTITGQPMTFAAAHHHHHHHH

With `CC(=O)O[C@@]12CO[C@@H]1C[C@H](O)[C@@]1(C)C(=O)[C@H](O)C3=C(C)[C@@H](OC(=O)[C@H](O)[C@@H](NC(=O)OC(C)(C)C)c4ccccc4)C[C@@](O)([C@@H](OC(=O)c4ccccc4)[C@H]21)C3(C)C` [Docetaxel] the “TGD (%)” value (H1975) was 77%, the “TGImax (%)” value (H1975) was 81% and the “TGD (%)” value (H1299) was 48%. The “TGImax (%)” value (H1299) was 87%, the “TGD (%)” value (EBC1) was 80% and the “TGImax (%)” value (EBC1) was 85%. For the same molecule, the “TGD (%)” value (H1650; IV/Q14Dx3) was 158* %, the “TGImax (%)” value (H1650; IV/Q14Dx3) was 80* % and the “TGD (%)” value (H1650; QDx1/IV) was 143%. The “TGImax (%)” value (H1650; QDx1/IV) was 84%.

B1: huAb3v2.2-CZ (conjugate)
VH: EVQLVQSGAEVKKPGSSVKVSCKASGYTFSSYWMHWVRQAPGQGLEWIGLIHPWSGSTNYNEMFKNRATLTVDRSTSTAYMELSSLRSEDTAVYYCAGGGRLYFDYWGQGTTVTVSS
VL: DIVMTQSPLSLPVTPGEPASISCRSSQSLVHSNRDTYLRWYLQKPGQSPQLLIYKVSNRFSGVPDRFSGSGSGTDFTLKISRVEAEDVGVYYCSQSTHVPYTFGGGTKVEIK
With B1 the IC50 (H847 cells) was 26.7 nM, the “Affinity of naked mAbs (Biacore, KD)” value (B7-H3) was “Poor fit” and the “% agg by SEC” value [1] was 1.8%.

B2: huAb3v2.9-CZ (conjugate)
VH: EVQLVQSGAEVKKPGSSVKVSCKASGYTFSSYWMHWVRQAPGQGLEWIGLIHPISGSTNYNEMFKNRATLTVDRSTSTAYMELSSLRSEDTAVYYCAGGGRLYFDYWGQGTTVTVSS
VL: DIVMTQSPLSLPVTPGEPASISCRSSQSLVHSNQDTYLRWYLQKPGQSPQLLIYKVSNRFSGVPDRFSGSGSGTDFTLKISRVEAEDVGVYYCSQSTHVPYTFGGGTKVEIK
In the case of B2, the IC50 (H847 cells) is reported as 2.3 nM, the “Affinity of naked mAbs (Biacore, KD)” value (B7-H3) is reported as “Poor fit” and the “TGD (%)” value (NCI-H146 cells) is reported as 135%. The “TGImax (%)” value (NCI-H146 cells) was 94% and the “% agg by SEC” value [1] was 4.3%.

B3: huAb3v2.3-CZ (conjugate)
VH: EVQLVQSGAEVKKPGSSVKVSCKASGYTFSSYWMHWVRQAPGQGLEWIGLIHPWSGSTNYNEMFKNRATLTVDRSTSTAYMELSSLRSEDTAVYYCAGGGRLYFDYWGQGTTVTVSS
VL: DIVMTQSPLSLPVTPGEPASISCRSSQSLVHSNQDTYLRWYLQKPGQSPQLLIYKVSNRFSGVPDRFSGSGSGTDFTLKISRVEAEDVGVYYCSQSTHVPYTFGGGTKVEIK
In the case of B3, the “Affinity of naked mAbs (Biacore, KD)” value (B7-H3) is reported as “Poor fit” and the “% agg by SEC” value [1] is reported as 1.5%.

B4: huAb3v2.8-CZ (conjugate)
VH: EVQLVQSGAEVKKPGSSVKVSCKASGYTFSSYWMHWVRQAPGQGLEWIGLIHPISGSTNYNEMFKNRATLTVDRSTSTAYMELSSLRSEDTAVYYCAGGGRLYFDYWGQGTTVTVSS
VL: DIVMTQSPLSLPVTPGEPASISCRSSQSLVHSNRDTYLRWYLQKPGQSPQLLIYKVSNRFSGVPDRFSGSGSGTDFTLKISRVEAEDVGVYYCSQSTHVPYTFGGGTKVEIK
With B4 the IC50 (H847 cells) was 2.36 nM, the “Affinity of naked mAbs (Biacore, KD)” value (B7-H3) was “Poor fit” and the “% agg by SEC” value [1] was 5.7%.

B5: Ab6 (antibody, V domains shown)
VH: QVQLQQSGAELMKPGASVKISCKATGYTFSRYWIEWVKQRPGHGLEWIGEILPGSGSTNYNEKFKGKATFTADTSSNTAYMQVSSLTSEDSAVHYCARRGYGYVPYALDYWGQGTSVTVSS
VL: EIQMTQTTSSLSASLGDRVTISCRASQDISNSLNWYQQKPDGTVNLLIYYTSRLYSGVPSRFSGSGSGTDYSLTISNLEQEDIATYFCQQGNTLPYTFGGGTKLEIK
For B5, the “FACS Binding (EC50 nM) Mouse B7-H3” value (mouse B7-H3) was “No binding”, the “huB7-H3 ka” value [2] was 12000 M⁻¹ s⁻¹ and the “huB7-H3 kd” value [2] was 0.01 s⁻¹. For the same molecule, the “cynoB7-H3 ka” value [3] was 28000 M⁻¹ s⁻¹ and the “cynoB7-H3 kd” value [3] was 0.012 s⁻¹.

B6: Ab18: murine monoclonal Ab18 (antibody, V domains shown)
VH: QVQLQQSAAELARPGASVKMSCKASGYSFTSYTIHWVKQRPGQGLEWIGYINPNSRNTDYNQKFKDETTLTADRSSSTAYMQLISLTSEDSAVYYCARYSGSTPYWYFDVWGAGTTVTVSS
VL: QIVLTQSPAILSASPGEKVTMTCRASSSVSYMNWYQQKPGSSPKPWIYATSNLASGVPARFSVSVSGTSHSLTISRVEAEDAATYYCQQWSSNPLTFGAGTKLELK
For B6, the “FACS Binding (EC50 nM) Mouse B7-H3” value (mouse B7-H3) was “No binding”, the “huB7-H3 ka” value [2] was 210000 M⁻¹ s⁻¹ and the “huB7-H3 kd” value [2] was 3.6e-05 s⁻¹. The “cynoB7-H3 ka” value [3] was 240000 M⁻¹ s⁻¹ and the “cynoB7-H3 kd” value [3] was 2.9e-05 s⁻¹.
